{"source": "patent US20150352207A1", "about": "“USE OF ANTIBODIES AGAINST ICAM-1 IN COMBINATION WITH AN ANTI CANCER DRUG IN THE TREATMENT OF PATIENTS” (BIOINVENT INTERNATIONAL AB, priority 2013, published 2015)", "molecules": {"B1": {"name": "IgG B11: novel human ICAM-1 antibody targeting the B11 epitope, isolated from the naïve antibody library n-CoDeR (antibody, V domains shown)", "VH": "EVQLLESGGGLVQPGGSLRLSCAASGFTFSNAWMSWVRQAPGKGLEWVAFIWYDGSNKYYADSVKGRFTISRDNSKNTLYLQMNSLRAEDTAVYYCARYSGWYFDYWGQGTLVTVSS", "VL": "QSVLTQPPSASGTPGQRVTISCTGSSSNIGAGYDVHWYQQLPGTAPKLLIYDNNNRPSGVPDRFSGSKSGTSASLAISGLRSEDEADYYCQSYDSSLSAWLFGGGTKLTVLG", "modifications": "B11 antibody variable H region; B11 antibody variable L region"}}, "key": {"[1]": {"system": "Daudi cells", "assay": "Subcutaneous scid/Daudi non-Hodgkin lymphoma xenograft", "format": "in vivo, scid mice", "details": "twice weekly i.p. from day 1"}, "[2]": {"system": "RPMI-8226 myeloma cells", "assay": "Advanced disseminated RPMI-8226 multiple myeloma model", "format": "in vivo, SCID mice", "details": "for survival: B11 2 mg/kg i.v. twice weekly for 8 weeks", "protocol": "ARH-77 cells or RPMI-8226 were injected intravenously into the SCID mice. (A) ARH-77 model. Animals received intravenous injections with antibody at 2 mg/kg or bortezomib (Velcade) at 0.5 mg/kg on Days 7, 10, 13, and 16 (as indicated by arrows in the graph). (B) RPMI-8226-model. B11 or control mAb was administered i.v at 2 mg/kg, twice weekly for 8 weeks, bortezomid, at 1 mg/kg, once weekly for 8 weeks, lenalidomide p.o with 2 mg/kg for 2 cycles consisting of 5 days of treatment and 2 days of wash out, melphalan i.v at 3 mg/kg, once weekly for 8 weeks, and dexamethasone (DXH) at 6 mg/kg/inj 3 times/week for 2 consecutive weeks. There were 6-10 mice per treatment group. Statistical significance was calculated using Log-rank Graphpad Prism software and determined at ***p<0.001. (C) To study the ICAM-1 level on human cells, the cells from different organs were stained and gated for CD38+/mCD45−/B11+. Left panel indicates the percentage of B11 positive cells in CD38+/mCD45 population and right panel the mean fluorescent intensity of the positive cells.\nThe anti-myeloma effect of B11 was examined in a disseminated model of multiple myeloma. The early and advanced disseminated model of multiple myeloma was performed at Oncodesign, Dijon, France. Briefly: 1×10^6 (early) or 5×10^6 (advanced) ARH-77 tumor cells in 200 μL of RPMI 1640 were injected intravenously (i.v) into the caudal vein of female scid mice (D0). Tumor cell injections were performed twenty four to forty eight hours after a whole body irradiation of mice (1.8 Gy, ^60Co, INRA, BRETENNIERES). The treatment was started at D5 RPMI-8226 model or D7 (ARH-77 model) […]. B11 or control mAb was administered i.v. at 2 mg/kg, twice weekly for 8 weeks, bortezomib, at 1 mg/kg, once weekly for 8 weeks, lenalidomide p.o with 2 mg/kg for 2 cycles consisting of 5 days of treatment and 2 days of wash out, melphalan i.v. at 3 mg/kg, once weekly for 8 weeks, and dexamethasone at 6 mg/kg 1 injected 3 times a week for 2 consecutive weeks.\n200 μl containing 10×10^6 of RPMI 8226 tumour cells was intravenously injected into the caudal vein of female SCID mice. The mice had been subjected to a whole body irradiation of mice (1.8 Gy, ^60Co, BioMEP) 24 to 72 hours prior to cell injection. At D1, tumor injected mice were randomized according to their individual body weight. All treatment started day 5 after tumor cell administration except for ALKERAN®, which started at day 10. All treatments were injected in a dose volume of 10 ml/kg/inj. Mice received one of the following treatments:\nMonoclonal anti-ICAM mAb or control mAb was administered i.v in a PBS solution containing at 2 mg/kg, 2 times/week for 8 consecutive weeks. […]"}, "[3]": {"target": "T1, mouse FcγRIV (Mus musculus, UniProt A0A0B4J1G0)", "T1 construct": "made in house; host or cells: HEK293E (transient, adherent)", "T1 sequence (A0A0B4J1G0 21-249)": "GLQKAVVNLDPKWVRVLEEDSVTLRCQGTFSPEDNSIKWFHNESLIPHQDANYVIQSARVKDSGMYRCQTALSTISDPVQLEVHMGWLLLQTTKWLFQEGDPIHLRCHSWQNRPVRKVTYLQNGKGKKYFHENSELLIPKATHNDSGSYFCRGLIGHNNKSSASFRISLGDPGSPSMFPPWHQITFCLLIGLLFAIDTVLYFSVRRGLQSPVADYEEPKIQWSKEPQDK", "assay": "B11 isotype variant binding to FcγR (Biacore), mouse FcγRIV", "protocol": "His-tagged human FcγRIIIa or mouse FcγRIV were expressed transient in adherent HEK293E cells, purified using Ni-NTA chromatography and characterized using SDS-PAGE and/or Biacore. Surface plasmon resonance (SPR) measurements were performed using a Biacore 3000 instrument. Goat α-human-F(ab)′2 F(ab)′2 fragment (Jackson laboratories) was immobilised with a CM-5 chip using a standard amine coupling protocol. IgG1 B11, IgG4 B11, or 297Q B11 were diluted to 15 and 60 μg/mL respectively and added to the surface at […] for 3 min. His tagged human FcγRIIIa or mouse FcγRIV were pre-incubated with an α-HIS antibody (R&D Systems) at a 2:1 molar ratio before addition to the chip surface, 30 μL/min, 1 min. After each cycle the surface was regenerated twice with glycine buffer pH 1.7."}, "[4]": {"target": "recombinant human ICAM-1 (Homo sapiens, UniProt P05362)", "sequence (P05362 28-532)": "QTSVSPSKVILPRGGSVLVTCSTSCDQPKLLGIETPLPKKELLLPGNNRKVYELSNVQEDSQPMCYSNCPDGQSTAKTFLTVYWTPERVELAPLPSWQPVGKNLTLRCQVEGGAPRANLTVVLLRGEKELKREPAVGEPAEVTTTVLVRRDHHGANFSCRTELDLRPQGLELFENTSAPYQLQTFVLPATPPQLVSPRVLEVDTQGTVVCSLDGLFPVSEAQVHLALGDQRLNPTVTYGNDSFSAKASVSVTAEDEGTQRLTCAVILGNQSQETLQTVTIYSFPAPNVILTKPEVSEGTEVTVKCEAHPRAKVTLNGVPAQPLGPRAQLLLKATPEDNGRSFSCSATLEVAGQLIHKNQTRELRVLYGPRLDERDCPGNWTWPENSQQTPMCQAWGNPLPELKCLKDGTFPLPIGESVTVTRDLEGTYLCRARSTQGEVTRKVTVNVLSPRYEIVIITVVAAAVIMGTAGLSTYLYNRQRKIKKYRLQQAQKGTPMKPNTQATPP", "assay": "ELISA binding to recombinant human ICAM-1, ICAM-2 or ICAM-3", "details": "versus ICAM-2, ICAM-3"}, "[5]": {"system": "ARH-77 cells", "assay": "Subcutaneous scid/ARH-77 xenograft, treatment from the day after cell inoculation (prophylactic model)", "description": "Tumor cells were injected subcutaneously into the left flank of SCID mice. Mice received twice-weekly intraperitoneal injections with B11, control antibody or rituximab at doses of 20, 2 and/or 0.2 mg/kg commencing one day after tumor cell inoculation. There were 8 to 10 animals per treatment group. (A) Tumor volume as a function of antibody dose. (B) Kaplan-Meier survival graph as a function of antibody dose. […] Statistical significance was calculated relative to control antibody treatment using Kruskal-Wallis Test (Nonparametric ANOVA) with Dunn's Multiple Comparisons Test (tumor volume) or the log-rank test (mouse survival) using Graphpad Instat or Prism software, respectively. Statistical significance was considered for *p<0.05, **p<0.01, and ***p<0.001.\nTumor cells were injected subcutaneously into the left flank of SCID mice. Mice received twice-weekly intraperitoneal injections with B11 at doses of 0.02-20 mg/kg commencing day after tumor cell inoculation. There were 8-10 animals per treatment group. (A) Tumor volume as a function of antibody dose. (B) Kaplan-Meier survival graph as a function of antibody dose. Statistical significance was calculated relative to control antibody treatment using Kruskal-Wallis Test (Nonparametric ANOVA) with Dunn's Multiple Comparisons Test (tumor volume) or the log-rank test (mouse survival) using Graphpad Instat or Prism software, respectively. Statistical significance was considered for *p<0.05, **p<0.01, and ***p<0.001. Graphs illustrate representative experiments out of several performed.\n(A) ARH-77 cells were injected subcutaneously into the left flank of SCID mice (n=8 per group). Mice were treated with the different B11 isotypes twice weekly. […] Statistical significance was calculated relative to control antibody treatment using Kruskal-Wallis Test (Nonparametric ANOVA) with Dunn's Multiple Comparisons Test. Statistical significance was considered for *p<0.05, **p<0.01, and ***p<0.001.\nMice were anaesthetized with a mixture of sevofluran and oxygen prior to myeloma cell inoculation and 1-5×10^6 myeloma cells were then subcutaneously injected in a volume of 100 μl into the left flank. Treatment with antibodies by intraperitonial (i.p.) injections was started either the day after cell inoculation (prophylactic model) or when tumors reached a size of approximately 100 mm^3 (established model)."}}, "note": "“Also recorded” adds a separate entry of the source.", "data": [{"molecule": "B1", "values": [{"measurement": "survival of tumor bearing mice", "setting": "[1]", "value": "prolonged survival of tumor bearing mice"}, {"measurement": "tumor growth", "setting": "[1]", "value": "significantly and equally efficaciously compared to rituximab, prevented tumor growth"}, {"measurement": "survival", "setting": "[2]", "value": "significantly enhanced survival; also recorded: trend towards improved survival in IgG B11 treated mice compared to mice treated with the immunomodulatory drug revlimid"}, {"measurement": "survival", "setting": "[2]; listed as B11, 2 mg/kg", "value": "significantly enhances survival; also recorded: highly improved survival"}, {"measurement": "survival", "setting": "[2]; listed as anti ICAM-1 mAb", "value": "more effective compared to other SOC single therapies"}, {"measurement": "disease onset", "setting": "[2]; B11 2 mg/kg i.v. twice weekly, compared to bortesomib and dexamethasone", "value": "delayed disease onset"}, {"measurement": "binding to murine FcγRIV", "setting": "[3]", "value": "strong binding"}, {"measurement": "specificity for ICAM-1", "setting": "[4]", "value": "high specificity"}, {"measurement": "tumor growth", "setting": "[5]; 20 mg/kg twice weekly i.p., commencing one day after tumor cell inoculation", "value": "completely prevent tumor-growth"}, {"measurement": "anti-tumor activity in dose-titration experiment", "setting": "[5]; B11 0.02-20 mg/kg twice weekly i.p.", "value": "peaked at the 2 mg/kg dose and remained near maximal at a dose of 0.2 mg/kg"}, {"measurement": "survival", "setting": "[5]; IgG B11 at 2 mg/kg, ten-fold lower dose than rituximab", "value": "complete survival"}, {"measurement": "anti-tumor activities of IgG B11 isotype switch variants (rank order)", "setting": "[5]; twice weekly treatment, s.c. ARH-77", "value": "increased in the order of IgG1N297Q<IgG4<IgG1"}]}]}
